Measurements: patent US6072039, “Hybrid polypeptide comparing a biotinylated avidin binding polypeptide fused to a polypeptide of interest” (Rohm and Haas Company, dated 2000)

Legend:
[1] = biological target: T1, avidin monomer affinity resin (Gallus gallus (Chicken), UniProt P02701); experiment: avidin monomer affinity column, formic acid cleavage mixture; by Procedure XI the polypeptide of interest is not retained and is collected in the column flowthrough
Experimental: (§1) The crude extract is applied to a 4 mm×5 cm column packed with avidin monomer affinity resin (U.S. Ser. No. 414,785) on a LKB HPLC system equipped with two Model 2150 pumps, Model 2152 controller, and a Model 2140 spectral detector. Sample absorbance is monitored at 280 nm. The crude extract is applied in 100 mM potassium phosphate buffer, pH 6.8 to 7.2 (or other appropriate buffer at a pH of 4.0 to 11.0) at a flow rate of 0.1 ml/min to a column equilibrated with the same buffer. After the sample is loaded, the column is washed with phosphate buffer at a flow rate of 1 ml/min until absorbance returned to the baseline absorbance, and all nonbound material is washed from the resin. The column is then equilibrated with water, followed by application of 5 ml of 2M NaCl. The column is reequilibrated with water. This same NaCl-water wash procedure is repeated four to five times. The sample is eluted using acetic acid or biotin, as detailed in Procedure IX.
Procedure XI. Separation of the Polypeptide of Interest from the Polypeptide for Attachment The dried polypeptide mixture is resuspended in avidin monomer column loading buffer, 100 mM phosphate buffer pH 6.8–7.2, or other appropriate buffer at a pH of between 4.0 and 11.0. Highly pure polypeptide of interest is obtained by passing the cleaved polypeptide mixture over the avidin resin using the procedure described above. […]

[2] = biological target: T1, avidin monomer affinity resin; experiment: avidin monomer affinity column, cyanogen bromide cleavage mixture; by Procedure XI the polypeptide of interest is not retained and is collected in the column flowthrough
Experimental: as §1
The hybrid polypeptide is dissolved in 70% (v/v) aqueous formic acid at 23° C. A 50 molar excess of cyanogen bromide is added in a small volume of 70% formic acid, with stirring. The mixture is incubated in the dark under nitrogen at 20–25° C. for 16 to 24 hours. The mixture is then diluted with 10 volumes of water and freeze-dried. Highly pure polypeptide of interest is obtained by Procedure VIII.
Procedure XI. […]

binding result [1] | binding result [2] | Binder
no binding | – | PMYGGFLTSEKSQTPLVTLFKNAIIKNAYKKGE [β-endorphin cleaved from the 1.3S:β-endorphin hybrid by formic acid (Example 2)]
– | no binding | YGGFLTSEKSQTPLVTLFKNAIIKNAYKKGE [β-endorphin cleaved from the hybrid polypeptide by cyanogen bromide (Examples 3 and 6)]
